Laboratory results reported in publication PMC12663309 (2025).

Molecular target: human NEK7 recombinant protein (HY-P75935, MCE) (human, UniProt Q8TDX7 1-302, RED-NHS dye label (in the MST only))
Assay: MST

Sequence of human NEK7 recombinant protein (HY-P75935, MCE) (Q8TDX7 whole entry, one chain of several): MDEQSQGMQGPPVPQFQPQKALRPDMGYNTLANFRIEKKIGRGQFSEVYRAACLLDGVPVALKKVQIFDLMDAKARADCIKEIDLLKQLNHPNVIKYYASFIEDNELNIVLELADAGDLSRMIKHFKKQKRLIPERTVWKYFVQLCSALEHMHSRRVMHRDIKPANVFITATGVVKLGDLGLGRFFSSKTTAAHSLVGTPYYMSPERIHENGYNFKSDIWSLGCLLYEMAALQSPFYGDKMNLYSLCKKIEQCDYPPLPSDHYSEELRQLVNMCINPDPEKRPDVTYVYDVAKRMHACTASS

B1: human SDHB recombinant protein (Ag29868, Proteintech) (natural protein)
chain: AQTAAATAPRIKKFAIYRWDPDKAGDKPHMQTYEVDLNKCGPMVLDALIKIKNEVDSTLTFRRSCREGICGSCAMNINGGNTLACTRRIDTNLNKVSKIYPLPHMYVIKDLVPDLSNFYAQYKSIEPYLKKKDESQEGKQQYLQSIEEREKLDGLYECILCACCSTSCPSYWWNGDKYLGPAVLMQAYRWMIDSRDDFTEERLAKLQDPFSLYRCHTIMNCTRTCPKGLNPGKAIAEIKKMMATYKEKKASV
Binder B1 has a Kd of 19.5 µM.
